How the values were obtained:
Test in all cases: cell-based or functional assay
[1] = biological target: HIV-1 envelope (Env) spike trimer of strain CAP210 (HIV-1 strain CAP210)
[2] = biological target: HIV-1 envelope (Env) spike trimer of strain SC4226618 (HIV-1 strain SC4226618)
[3] = biological target: HIV-1 envelope (Env) spike trimer of strain 6535.3 (HIV-1 strain 6535.3)

Row | Substance | neutralization potency compared with the mixture of Fabs plus dsDNA or the more potent of the two Fabs alone [1] [fold] | neutralization potency compared with the mixture of Fabs plus dsDNA or the more potent of the two Fabs alone [2] [fold] | neutralization potency (IC50) compared with 3BNC60 IgG against HIV-1 6535.3 [3] [fold]
1 | PG16-60 bp-b12 hetero-diFab (bispecific antibody) | 10 | 10 | 
2 | 3BNC60-62 bp-3BNC60 homo-diFab |  |  | 100
